Residue numbers refer to the chain shown, from its start.
Key:
Fc-labeled CD70 antigen [1] = molecular target: T1, Fc-labeled CD70 antigen; test: flow cytometry: CAR-transduced T cells stained with Fc-labeled CD70 antigen (1:100) and secondary antibody PE-Fc; NT control 0.61
T1 construct: soluble antigen used at 1:100 to stain CAR-T cells; also called detected with the secondary antibody PE-Fc (axis label PE-Fc)
T1 sequence (P32970 whole entry, species assumed, looked up): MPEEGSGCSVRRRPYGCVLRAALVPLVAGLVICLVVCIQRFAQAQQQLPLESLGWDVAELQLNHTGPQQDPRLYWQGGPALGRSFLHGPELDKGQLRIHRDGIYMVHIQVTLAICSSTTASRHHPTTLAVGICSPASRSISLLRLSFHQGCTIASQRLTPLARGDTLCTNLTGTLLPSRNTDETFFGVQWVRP
Method: The CAR positive rate of the retrovirus-infected T lymphocytes were detected 72 hours after virus infection. For the chimeric antigen receptor group containing CD70-2A5-BBz, CD70-5C10-BBz, CD70-8A6-BBz, CD70-8B4-BBz, CD70-8E1-BBz, CD70-8F9-BBz, CD70-9D8-BBz, CD70-11C9-BBz and ARGX-BBz clone and the negative uninfected control group NT, 1×10⁶ cells from the above two groups respectively, were taken and centrifuged to remove the medium, the cells were washed once with PBS, and resuspended in 100 μL of the flow loading tube (BD). Fc-labeled CD70 antigen (1:100) was added and incubated for 30 minutes at 4° C. After washing the cells once with PBS, the secondary antibody PE-Fc was added according to the recommended ratio and incubated for 30 minutes in the dark. After the cells were washed once with PBS, the cells were resuspended in 200 μL of PBS and tested on the machine. The results of flow cytometric analysis of CAR-T positive rate are shown by FIG. 11.

Fc-labeled CD70 antigen [2] = molecular target: T1, Fc-labeled CD70 antigen; test: flow cytometry: CAR-transduced T cells stained with Fc-labeled CD70 antigen (1:100) and secondary antibody PE-Fc; NT control 0.79
Method: The CAR positive rate of the retrovirus-infected T lymphocytes was detected 72 hours after virus infection. For the chimeric antigen receptor group containing CD70-2A5-BBz, CD70-8B4-BBz, CD70-9D8-BBz, CD70-11C9-BBz and ARGX-BBz clones and the negative uninfected control NT, 1×10⁶ cells from the above two groups respectively, were taken and centrifuged to remove the medium, washed once with PBS, and resuspended in 100 μL in a flow loading tube (BD). Fc-labeled CD70 antigen (1:100) was added and incubated for 30 minutes at 4° C. After washing the cells once with PBS, the secondary antibody PE-Fc was added according to the recommended ratio and incubated for 30 minutes in the dark. After the cells were washed once with PBS, the cells were resuspended in 200 μL of PBS and tested on the machine. The results of flow cytometric analysis of CAR-T positive rate are shown by FIG. 16.

[3] = molecular target: T2, recombinant human CD27-his protein (human, UniProt P26842 21-192, limits assumed); test: ELISA; CD70-alFc coated in 4-fold dilution from 100 ng, 0.1 ug/mL CD27-his in solution, HRP anti-his-tag detection; coated CD70-alFc titrated, CD27-his fixed at 0.1 µg/mL
T2 construct: Bought; also called commercial CD27; recombinant human CD27 protein; not shown: his tag
T2 sequence (looked up): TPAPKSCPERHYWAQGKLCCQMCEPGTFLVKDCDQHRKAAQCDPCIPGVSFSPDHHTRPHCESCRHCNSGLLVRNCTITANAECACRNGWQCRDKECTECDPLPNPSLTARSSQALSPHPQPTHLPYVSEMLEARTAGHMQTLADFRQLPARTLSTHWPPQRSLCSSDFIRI
Method: ELISA activity identification of recombinant human CD70-alFc protein with commercial CD27: recombinant human CD70-alFc protein was coated in a 4-fold gradient dilution package in an ELISA plate, the first well was coated with 100 ng, and sequentially diluted 4-fold (100 uL/well), incubated at 4° C. overnight, washed 3 times with 200 uL PBST the next day, and blocked with 1% BSA/PBS for 1 hour. The blocking solution was removed, 100 μL 0.1 μg/mL recombinant human CD27-his protein was added to each well, and incubated at 37° C. for 1 hour. After washing 3 times with 200 μL PBST, horseradish peroxidase-labeled rabbit anti-his-tag antibody (100 μL per well) diluted 1:4000 was added, and incubated at 37° C. for 1 hour. After washing 3 times with 200 μL PBST, 100 μL TMB chromogen solution was added for development at 37° C. for 10 minutes, 100 μL 1M hydrochloric acid was added to stop the reaction, and the absorbance value at OD₄₅₀ was obtained. The analysis results are shown by FIG. 2 and Table 1.

CD70-11C9 VHH-huIgG1-Fc = molecular target: T3, CD70-11C9 VHH-huIgG1-Fc (human, UniProt P01857-1 104-330 = IgG part); test: BLI (Octet K2); biotinylated CD70 on SA probe, VHH-huFc as analyte at 200, 100, 50, 25 nM
T3 construct: domain: IgG1-Fc; Recombinant VHH-huIgG1-Fc made in 293F cells; also called VHH-huFc antibody CD70-11C9
Method: (§1) The affinity of four VHH-huFc antibodies CD70-2A5, CD70-8B4, CD70-9D8, and CD70-11C9 to human CD70 was analyzed by Octet K2 molecular interaction analyzer. The SA probe was immobilized with 200 μL 100 nM biotinylated recombinant human CD70 protein at a height of […]. […] The results are shown by FIG. 8 and Table 4.

CD70-9D8 VHH-huIgG1-Fc = molecular target: T4, CD70-9D8 VHH-huIgG1-Fc (human, UniProt P01857-1 104-330 = IgG part, limits assumed); test: as above
T4 construct: domain: IgG1-Fc; Recombinant VHH-huIgG1-Fc made in 293F cells; also called VHH-huFc antibody CD70-9D8
Method: as §1

CD70-2A5 VHH-huIgG1-Fc = molecular target: T5, CD70-2A5 VHH-huIgG1-Fc (human, UniProt P01857-1 104-330 = IgG part, limits assumed); test: as above
T5 construct: domain: IgG1-Fc; Recombinant VHH-huIgG1-Fc made in 293F cells; also called VHH-huFc antibody CD70-2A5
Method: as §1

CD70-8B4 VHH-huIgG1-Fc = molecular target: T6, CD70-8B4 VHH-huIgG1-Fc (human, UniProt P01857-1 104-330 = IgG part, limits assumed); test: as above
T6 construct: domain: IgG1-Fc; Recombinant VHH-huIgG1-Fc made in 293F cells; also called VHH-huFc antibody CD70-8B4
Method: as §1

B1: 2A5-BBz (other)
chimeric antigen receptor chain: EVQLVESGGGLVQAGGSLRLSCAASGSIFSINAMGWYRQAPGKQRELVAAITSGGSTNYADSVKGRFTISRDNAKNTVYLQMNSLKPEDTAVYYCNAGAGRAFPGDYWGQGTQVTVSSTTTPAPRPPTPAPTIASQPLSLRPEACRPAAGGAVHTRGLDFACDIYIWAPLAGTCGVLLLSLVITLYCRFSVVKRGRKKLLYIFKQPFMRPVQTTQEEDGCSCRFPEEEEGGCELRVKFSRSADAPAYQQGQNQLYNELNLGRREEYDVLDKRRGRDPEMGGKPRRKNPQEGLYNELQKDKMAEAYSEIGMKGERRRGKGHDGLYQGLSTATKDTYDALHMQALPPR
notes: also called CD70-2A5-BBz
Fc-labeled CD70 antigen [1]
  CD70 CAR+ (positive rate of the cells): 75.8%
Fc-labeled CD70 antigen [2]
  CD70 CAR+ (positive rate of the cells): 82.4%

B2: 5C10-BBz (other)
chimeric antigen receptor chain: B1 chimeric antigen receptor chain with E1Q, I31M, A60V
notes: also called CD70-5C10-BBz
Fc-labeled CD70 antigen [1]
  CD70 CAR+ (positive rate of the cells): 60%

B3: recombinant human CD70-alFc protein (Fc fusion)
chain: QRFAQAQQQLPLESLGWDVAELQLNHTGPQQDPRLYWQGGPALGRSFLHGPELDKGQLRIHRDGIYMVHIQVTLAICSSTTASRHHPTTLAVGICSPASRSISLLRLSFHQGCTIASQRLTPLARGDTLCTNLTGTLLPSRNTDETFFGVQWVRPELKTPQPQSQPECRCPKCPAPELLGGPSVFIFPPKPKDVLSISGRPEVTCVVVDVGQEDPEVSFNWYIDGAEVRTANTKPKEEQFNSTYRVVSVLPIRHQDWLTGKEFKCKVNNKALPAPIERTISKAKGQTREPQVYALAPHREELAKDTVSVTCLVKDFYPVDINIEWQRNGQPESEGTYATTPPQLDNDGTYFLYSKLSVGKNTWQRGETFTCVVMHEALPNHYTQKSITQSSGK
notes: range 39-193; Made in 293T cells; also called CD70-alIgG1Fc fusion protein; recombinant human CD70 protein
[3]
  EC50: 8.69 ng/mL

B4: 11C9-BBz (other)
chimeric antigen receptor chain: QVQLVESGGGLVQPGGSLRLSCAASGFTLDYYAVGWFRQAPGKEREGVSCISSSSDGSTYYVDSVLGRFTISRNNAENTVYLQMNSLKPEDTAVYYCSTDVLTSCRSDRYLEVWGQGTLVTVSGTTTPAPRPPTPAPTIASQPLSLRPEACRPAAGGAVHTRGLDFACDIYIWAPLAGTCGVLLLSLVITLYCRFSVVKRGRKKLLYIFKQPFMRPVQTTQEEDGCSCRFPEEEEGGCELRVKFSRSADAPAYQQGQNQLYNELNLGRREEYDVLDKRRGRDPEMGGKPRRKNPQEGLYNELQKDKMAEAYSEIGMKGERRRGKGHDGLYQGLSTATKDTYDALHMQALPPR
notes: also called CD70-11C9-BBz
Fc-labeled CD70 antigen [1]
  CD70 CAR+ (positive rate of the cells): 51.3%
Fc-labeled CD70 antigen [2]
  CD70 CAR+ (positive rate of the cells): 70.9%

B5: 8F9-BBz (other)
chimeric antigen receptor chain: QLQLVESGGGLVQAGGSLRLSCAVSGRTSSTYAMAWFRQAPGKEREIVAVIGWSGGRTAYADSVKGRFTIAKDNAKNTVSLQMNSLKPEDTGVYYCAADSEQSSSSEGQAYGYEDWGQGTLVTVSSTTTPAPRPPTPAPTIASQPLSLRPEACRPAAGGAVHTRGLDFACDIYIWAPLAGTCGVLLLSLVITLYCRFSVVKRGRKKLLYIFKQPFMRPVQTTQEEDGCSCRFPEEEEGGCELRVKFSRSADAPAYQQGQNQLYNELNLGRREEYDVLDKRRGRDPEMGGKPRRKNPQEGLYNELQKDKMAEAYSEIGMKGERRRGKGHDGLYQGLSTATKDTYDALHMQALPPR
notes: also called CD70-8F9-BBz
Fc-labeled CD70 antigen [1]
  CD70 CAR+ (positive rate of the cells): 72.7%

B6: 9D8-BBz (other)
chimeric antigen receptor chain: QLQLVESGGGLVQPGGSLRLSCAVSGRTSSTYAMAWFRQAPGKEREIVAVITWSGGRTAYADSVKGRFTIAKDSAKNTVYLQMNSLKPEDTAVYYCAADSEVSSSSEGQYGYESWGQGTQVTVSSTTTPAPRPPTPAPTIASQPLSLRPEACRPAAGGAVHTRGLDFACDIYIWAPLAGTCGVLLLSLVITLYCRFSVVKRGRKKLLYIFKQPFMRPVQTTQEEDGCSCRFPEEEEGGCELRVKFSRSADAPAYQQGQNQLYNELNLGRREEYDVLDKRRGRDPEMGGKPRRKNPQEGLYNELQKDKMAEAYSEIGMKGERRRGKGHDGLYQGLSTATKDTYDALHMQALPPR
notes: also called CD70-9D8-BBz
Fc-labeled CD70 antigen [1]
  CD70 CAR+ (positive rate of the cells): 74.1%
Fc-labeled CD70 antigen [2]
  CD70 CAR+ (positive rate of the cells): 83%

B7: biotinylated recombinant human CD70 protein (ligand, UniProt P32970 39-193, looked up)
chain: QRFAQAQQQLPLESLGWDVAELQLNHTGPQQDPRLYWQGGPALGRSFLHGPELDKGQLRIHRDGIYMVHIQVTLAICSSTTASRHHPTTLAVGICSPASRSISLLRLSFHQGCTIASQRLTPLARGDTLCTNLTGTLLPSRNTDETFFGVQWVRP
modifications: biotin on the avi-tag
notes: also called biotinylated CD70 protein; biotinylated CD70 recombinant protein; not shown: avi-tag (and any other tag or Fc)
CD70-11C9 VHH-huIgG1-Fc
  Kd: < 1 pM
  koff: < 1e-07 s⁻¹
  kon: 264000 M⁻¹ s⁻¹
CD70-9D8 VHH-huIgG1-Fc
  Kd: 1830 pM
  koff: 0.000235 s⁻¹
  kon: 129000 M⁻¹ s⁻¹
CD70-2A5 VHH-huIgG1-Fc
  Kd: < 1 pM
  koff: < 1e-07 s⁻¹
  kon: 36700 M⁻¹ s⁻¹
CD70-8B4 VHH-huIgG1-Fc
  Kd: < 1 pM
  koff: < 1e-07 s⁻¹
  kon: 45500 M⁻¹ s⁻¹

B8: 8B4-BBz (other)
chimeric antigen receptor chain: EVQLVESGGGFVQPGGSLRLSCAASGFTLDGYAVAWFRQAPGKEREGVSCISSSDGSTYYIDSVQGRFTITRNNAKNTVYLQMNSLKPEDTAVYYCTTDVLTSCRSDRWLEVWGQGTLVTVSSTTTPAPRPPTPAPTIASQPLSLRPEACRPAAGGAVHTRGLDFACDIYIWAPLAGTCGVLLLSLVITLYCRFSVVKRGRKKLLYIFKQPFMRPVQTTQEEDGCSCRFPEEEEGGCELRVKFSRSADAPAYQQGQNQLYNELNLGRREEYDVLDKRRGRDPEMGGKPRRKNPQEGLYNELQKDKMAEAYSEIGMKGERRRGKGHDGLYQGLSTATKDTYDALHMQALPPR
notes: also called CD70-8B4-BBz
Fc-labeled CD70 antigen [1]
  CD70 CAR+ (positive rate of the cells): 72.1%
Fc-labeled CD70 antigen [2]
  CD70 CAR+ (positive rate of the cells): 78.3%
